Data reported in article PMC4786781.

What was measured:
[1] = target: T1, Spo0J R82A R82A (Bacillus subtilis) (UniProt P26497); experiment: single-molecule PIFE kinetics, koff/kon; conditions: 150 mM NaCl, kon 2.1±0.2e6 M-1 s-1, koff 0.16±0.01 s-1, Cy3-dUTP randomly incorporated, about 1 per kb, PIFE: 20 mM Tris pH 7.5, 100 ug/ml BSA, 100 mM NaCl (150 mM for Spo0J R82A Kd), flow 100 ul/min, BLItz: 20 mM Tris pH 7.5, 150 mM NaCl, 0.02% …
T1 sequence: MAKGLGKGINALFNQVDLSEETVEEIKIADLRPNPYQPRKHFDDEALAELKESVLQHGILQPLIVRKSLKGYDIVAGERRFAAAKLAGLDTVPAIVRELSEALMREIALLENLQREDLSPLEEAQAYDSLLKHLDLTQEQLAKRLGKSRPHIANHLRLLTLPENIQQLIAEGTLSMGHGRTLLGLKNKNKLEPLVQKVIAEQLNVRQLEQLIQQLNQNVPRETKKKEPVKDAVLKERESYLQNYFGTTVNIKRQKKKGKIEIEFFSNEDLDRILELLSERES

HBsu (Bacillus subtilis) = experiment: single-molecule PIFE and DNA length, two-state model; conditions: Cy3-dUTP randomly incorporated, about 1 per kb, PIFE: 20 mM Tris pH 7.5, 100 ug/ml BSA, 100 mM NaCl (150 mM for Spo0J R82A Kd), flow 100 ul/min, BLItz: 20 mM Tris pH 7.5, 150 mM NaCl, 0.02% …
[2] = target: T1, Spo0J R82A R82A (Bacillus subtilis); experiment: single-molecule PIFE, steady state, Hill fit (n=0.8±0.2); conditions: 150 mM NaCl, apparent Kd, Cy3-dUTP randomly incorporated, about 1 per kb, PIFE: 20 mM Tris pH 7.5, 100 ug/ml BSA, 100 mM NaCl (150 mM for Spo0J R82A Kd), flow 100 ul/min, BLItz: 20 mM Tris pH 7.5, 150 mM NaCl, 0.02% …

## 20-kb Cy3-labelled DNA
[1]
  Kd: 76.2 nM
HBsu (Bacillus subtilis); K1, high-affinity bending mode, first dimer
  Kd: 13 nM
HBsu (Bacillus subtilis); K2, low-affinity filament mode, second dimer
  Kd: 390 nM
[2]
  Kd: 60.5 nM
